Test results: patent US6906176B2, “Enterokinase cleavage sequences” (Dyax Corp., priority 2000, dated 2005)
Marks after values point to notes of the source that are not given here.

Key:
Assay type in all cases: biochemical
[1] = target: T1, recombinant light chain enterokinase (Bos taurus, UniProt P98072); assay: Cleavage site test: digestion of synthetic test peptides to completion, HPLC and mass spectroscopy; conditions: for extent of enterokinase digestion: 36-48 hrs with 20U enterokinase, HPLC; for recovered product, product peak 1 / recovered product, product peak 2: 60 to 100 μg peptide digested to completion (36-48 hrs) with 20U enterokinase, reverse phase HPLC, electrospray MS
T1 construct: enterokinase cleavage using 30 nM recombinant light chain enterokinase (Novagen); purchased Novagen, Madison, Wis
Description: To further test the predicted cleavage site as well as the rates and extent of cleavage, seven test peptides shown in Table 6 were chemically synthesized, contacted with enterokinase, and analyzed by HPLC and mass spectrometric analysis.
To test the predicted cleavage site, i.e., following the acid-base dipeptide motif, 60 to 100 μg of each test peptide was digested to completion (36-48 hrs) with 20U of recombinant light chain enterokinase (Novagen) and analyzed by reverse phase HPLC. Product peaks were eluted with a water/acetonitrile (H2O/ACN) gradient and identified by electrospray mass spectroscopy.
“% ACN” estimates the position in the H2O/Acetonitrile gradient at which the indicated cleavage fragment eluted. The expected product peaks for GDDDDK (residue 1-6 SEQ ID NO:197) and NKAKDR (residues 1-6, SEQ ID NO:201) were not detected by HPLC, but the cleavage site could be determined from analyzing the alternate product peak, i.e., the peptide to the C-terminal side of the cleavage site.

[2] = target: T1, recombinant light chain enterokinase; assay: Relative rate of cleavage of synthetic peptides by HPLC; conditions: about 500 μM peptide; for cleavage rate compared with the other peptides (in words): 50 nM enterokinase; for Cleavage Rate: 50 nM recombinant light chain enterokinase
Description: Peptides were digested with enterokinase and aliquots tested at timed intervals by HPLC to quantitate the extent of cleavage. For each test peptide, about 500 μM of peptide were digested with 50 nM of recombinant light chain enterokinase. The seven synthetic peptides were compared with a commercially available standard EK cleavage substrate, GDDDDK-β-naphthylamine (GDDDDK-βNA, SEQ ID NO:203; from BACHEM, King of Prussia, Pa.), having a fluorescent leaving group that increases in fluorescence when it is cleaved.

[3] = target: T1, recombinant light chain enterokinase; assay: as above; conditions: relative to GDDDDK-βNA; peptides tested individually at 500 μM
[4] = target: T2, enterokinase (Bos taurus, UniProt P98072); assay: Substrate competition with reference peptide GDDDDK-βNA; conditions: for reference peptide rate (Vb): rate of reference peptide GDDDDK-βNA 250 μM in competition with the test peptide 250 μM; for ratio (Va/Vb): test peptide cleavage rate to reference peptide cleavage rate, 250 μM each; for ratio kcat/Km, times greater than that of the reference peptide: tested in competition at 250 μM
T2 construct: provide a substrate specifically recognized and cleaved by recombinant light chain enterokinase
Description: Rates of substrate hydrolysis depends on several factors, namely, concentration of enzyme and substrate, Km (Michaelis constant) values, and kcat (catalytic rate constant) values. One way to compare the relative efficiencies with which a protease hydrolyses two substrates (a and b) is to simultaneously incubate both substrates in a single reaction with the enzyme and measure the rates of product formation for each (Va and Vb). If the total product formation is low (<10%), the starting concentrations of the two competing substrates are the same, and the reaction is performed at steady-state: Va/Vb=(kcat/Km)a/(kcat/Km)b Relative ratios of kcat/Km can be determined from relative rates of substrate hydrolysis.
To compare the relative efficiency of hydrolysis by enterokinase, reference peptide (GDDDDK-βNA, 250 μM, SEQ ID NO:203) was incubated simultaneously with one of the test peptides (250 μM), treated with enterokinase, and the relative rate of product formation measured. The products were quantitated by HPLC and initial cleavage rates calculated.

[5] = target: T1, recombinant light chain enterokinase; assay: Phage ELISA kinetics of enterokinase cleavage of phage isolates; conditions: streptavidin-bound phage, 30 nM or 130 nM enterokinase, 30 minutes
Description: FIG. 1 and FIG. 2 show the time course of enterokinase cleavage of phage isolates from five rounds of screening a substrate phage library. The tested isolates were those having recurring sequences among 90 sequenced isolates. The isolates are tested in comparison with an isolate (5-H11) containing the known enterokinase cleavage sequence DDDDK and an unselected phage displaying a polypeptide not recognized by enterokinase.
Phage displaying each of the sequences shown in Table 5 were tested individually for kinetics of enterokinase cleavage using a phage ELISA. Streptavidin-bound phage were treated with either 30 nM or 130 nM enterokinase for 30 minutes. The time courses of phage release are shown in FIG. 1 (release at 30 nM EK) and FIG. 2 (release at 130 nM EK). Phage from the unselected substrate library were used as a control, i.e., isolate 5-F08. (SEQ ID NO:196).

T1 sequence (P98072 801-1035 limits assumed): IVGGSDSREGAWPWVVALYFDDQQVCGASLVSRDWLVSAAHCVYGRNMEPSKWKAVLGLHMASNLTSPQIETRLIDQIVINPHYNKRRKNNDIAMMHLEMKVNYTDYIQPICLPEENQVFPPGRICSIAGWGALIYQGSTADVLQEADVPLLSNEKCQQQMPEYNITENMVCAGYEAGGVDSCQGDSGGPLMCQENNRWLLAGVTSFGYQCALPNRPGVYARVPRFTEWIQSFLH
T2 sequence (P98072 801-1035 limits assumed): as above

Substance | extent of enterokinase digestion [1] | extent of enterokinase digestion ([1]; listed as negative control peptide) | cleavage rate compared with the other peptides (in words) [2] | Cleavage Rate [2] | recovered product, product peak 1 [1] | recovered product, product peak 2 [1] | rate relative to standard substrate [3] | reference peptide rate (Vb) [4] | ratio (Va/Vb) [4] | ratio kcat/Km, times greater than that of the reference peptide [4] | enterokinase cleavage rate of phage isolate (phage release) [5]
AVLSNVMFT (AVLSNVMFI; negative control in EK cleavage experiment) [AVLSNVMFII, negative control test peptide, reference compound] | not cleaved at all | No cleavage |  |  |  |  |  |  |  |  | 
DINDDRSLF (synthetic enterokinase cleavage sequence) |  |  | cleaved significantly more rapidly than the two control peptides | 1/43 | DINDDR | SLF | 3.1 | 0.006 | 30 | 30 | 
DINDDRSLFSESS (synthetic enterokinase cleavage sequence) [Isolate 5-H04, round 5 phage isolate] |  |  |  |  |  |  |  |  |  |  | most readily cut
GDDDDK-β-naphthylamine [GDDDDK-βNA, reference compound] |  |  | cleaved at nearly equal rates and more rapidly than the remaining three peptides tested | 0.46 nmol/min |  |  | (1.0) |  |  |  | 
GDDDDKIYV (natural enterokinase cleavage sequence) [reference compound] |  |  | cleaved at nearly equal rates and more rapidly than the remaining three peptides tested | 0.34 nmol/min |  | IYV | 0.7 | 0.027 | 1.0 |  | 
GNYTDRMFI (synthetic enterokinase cleavage sequence) |  |  | cleaved significantly more rapidly than the two control peptides | 0.81 nmol/min | GNYTDR | MET | 1.8 | 0.011 | 3.5 | 3.5 | 
GNYTDRRFI (synthetic enterokinase cleavage sequence) |  |  |  | 0.18 nmol/min | GNYTDR | RFI | 0.4 |  |  |  | 
GNYTDRYFI (commercial synthetic enterokinase cleavage substrate) |  |  |  | 0.24 nmol/min | GNYTDR | YFI | 0.5 |  |  |  | 
MGDDDDKIYVYKT (synthetic enterokinase cleavage sequence) [Isolate 5-H11, reference compound] |  |  |  |  |  |  |  |  |  |  | slower than for at least three of the other isolates
NKAKDRMFI (synthetic enterokinase cleavage sequence) |  |  |  | ~0.26* nmole/min. |  | MFI | 0.6 |  |  |  | 
